Patent US20100183625A1, “Treatment of Mucositis with Kallikrein Inhibitors” (Dyax Corp., priority 2009, published 2010)

B1: X66-G08: single point mutation of M142-H08 (P1); HV-CDR3 GGLLLWFYELKSNYFDY (antibody, V domains shown)
VL: QDIQMTQSPSSLSAFVGDRVTITCRASQPIDNYLNWYHQKPGKAPKLLIYAASRLQSGVPSRLSGSGFGTDFTLTISSLQPEDFGNYYCQQSYTVPYTFGGGTKVEIR
VH: EVQLLESGGGLVQPGGSLRLSCAASGFTFSAYSMIWVRQAPGKGLEWVSYIRPSGGRTTYADSVKGRFTISRDNSKNTLYLQMNSLRAEDTAVYYCARGGLLLWFYELKSNYFDYWGQGTLVTVSSASTKGPSVFPLAPSSKS
B2: X69-D09: single point mutation of M142-H08 (P1′); HV-CDR3 GGLLLWFRGLKSNYFDY (antibody, V domains shown)
VL: QDIQMTQSPSSLSAFVGDRVTITCRASQPIDNYLNWYHQKPGKAPKLLIYAASRLQSGVPSRLSGSGFGTDFTLTISSLQPEDFGNYYCQQSYTVPYTFGGGTKVEIR
VH: EVQLLESGGGLVQPGGSLRLSCAASGFTFSAYSMIWVRQAPGKGLEWVSYIRPSGGRTTYADSVKGRFTISRDNSKNTLYLQMNSLRAEDTAVYYCARGGLLLWFRGLKSNYFDYWGQGTLVTVSSASTKGPSVFPLAPSSKS
B3: X69-D08: single point mutation of M142-H08 (P1′); HV-CDR3 GGLLLWFRALKSNYFDY (antibody, V domains shown)
VL: QDIQMTQSPSSLSAFVGDRVTITCRASQPIDNYLNWYHQKPGKAPKLLIYAASRLQSGVPSRLSGSGFGTDFTLTISSLQPEDFGNYYCQQSYTVPYTFGGGTKVEIR
VH: EVQLLESGGGLVQPGGSLRLSCAASGFTFSAYSMIWVRQAPGKGLEWVSYIRPSGGRTTYADSVKGRFTISRDNSKNTLYLQMNSLRAEDTAVYYCARGGLLLWFRALKSNYFDYWGQGTLVTVSSASTKGPSVFPLAPSSKS
B4: X69-A12: single point mutation of M142-H08 (P1′); HV-CDR3 GGLLLWFRKLKSNYFDY (antibody, V domains shown)
VL: QDIQMTQSPSSLSAFVGDRVTITCRASQPIDNYLNWYHQKPGKAPKLLIYAASRLQSGVPSRLSGSGFGTDFTLTISSLQPEDFGNYYCQQSYTVPYTFGGGTKVEIR
VH: EVQLLESGGGLVQPGGSLRLSCAASGFTFSAYSMIWVRQAPGKGLEWVSYIRPSGGRTTYADSVKGRFTISRDNSKNTLYLQMNSLRAEDTAVYYCARGGLLLWFRKLKSNYFDYWGQGTLVTVSSASTKGPSVFPLAPSSKS
B5: X69-D02: single point mutation of M142-H08 (P1′); HV-CDR3 GGLLLWFRHLKSNYFDY (antibody, V domains shown)
VL: QDIQMTQSPSSLSAFVGDRVTITCRASQPIDNYLNWYHQKPGKAPKLLIYAASRLQSGVPSRLSGSGFGTDFTLTISSLQPEDFGNYYCQQSYTVPYTFGGGTKVEIR
VH: EVQLLESGGGLVQPGGSLRLSCAASGFTFSAYSMIWVRQAPGKGLEWVSYIRPSGGRTTYADSVKGRFTISRDNSKNTLYLQMNSLRAEDTAVYYCARGGLLLWFRHLKSNYFDYWGQGTLVTVSSASTKGPSVFPLAPSSKS
B6: X69-F01: single point mutation of M142-H08 (P1′); HV-CDR3 GGLLLWFRTLKSNYFDY (antibody, V domains shown)
VL: QDIQMTQSPSSLSAFVGDRVTITCRASQPIDNYLNWYHQKPGKAPKLLIYAASRLQSGVPSRLSGSGFGTDFTLTISSLQPEDFGNYYCQQSYTVPYTFGGGTKVEIR
VH: EVQLLESGGGLVQPGGSLRLSCAASGFTFSAYSMIWVRQAPSKGLEWVSYIRPSGGRTTYADSVKGRFTISRDNSKNTLYLQMNSLRAEDTAVYYCARGGLLLWFRTLKSNYFDYWGQGTLVTVSSASTKGPSVFPLAPSSKS
B7: X69-C12: single point mutation of M142-H08 (P1′); HV-CDR3 GGLLLWFRVLKSNYFDY (antibody, V domains shown)
VL: QDIQMTQSPSSLSAFVGDRVTITCRASQPIDNYLNWYHQKPGKAPKLLIYAASRLQSGVPSRLSGSGFGTDFTLTISSLQPEDFGNYYCQQSYTVPYTFGGGTKVEIR
VH: EVQLLESGGGLVQPGGSLRLSCAASGFTFSAYSMIWVRQAPGKGLEWVSYIRPSGGRTTYADSVKGRFTISRDNSKNTLYLQMNSLRAEDTAVYYCARGGLLLWFRVLKSNYFDYWGQGTLVTVSSASTKGPSVFPLAPSSKS
B8: X69-A10: single point mutation of M142-H08 (P1′); HV-CDR3 GGLLLWFRPLKSNYFDY (antibody, V domains shown)
VL: QDIQMTQSPSSLSAFVGDRVTITCRASQPIDNYLNWYHQKPGKAPKLLIYAASRLQSGVPSRLSGSGFGTDFTLTISSLQPEDFGNYYCQQSYTVPYTFGGGTKVEIR
VH: EVQLLESGGGLVQPGGSLRLSCAASGFTFSAYSMIWVRQAPGKGLEWVSYIRPSGGRTTYADSVKGRFTISRDNSKNTLYLQMNSLRAEDTAVYYCARGGLLLWFRPLKSNYFDYWGQGTLVTVSSASTKGPSVFPLAPSSKS
B9: X69-B08: single point mutation of M142-H08 (P1′); HV-CDR3 GGLLLWFRNLKSNYFDY (antibody, V domains shown)
VL: QDIQMTQSPSSLSAFVGDRVTITCRASQPIDNYLNWYHQKPGKAPKLLIYAASRLQSGVPSRLSGSGFGTDFTLTISSLQPEDFGNYYCQQSYTVPYTFGGGTKVEIR
VH: EVQLLESGGGLVQPGGSLRLSCAASGFTFSAYSMIWVRQAPGKGLEWVSYIRPSGGRTTYADSVKGRFTISRDNSKNTLYLQMNSLRAEDTAVYYCARGGLLLWFRNLKSNYFDYWGQGTLVTVSSASTKGPSVFPLAPSSKS
B10: X69-A09: single point mutation of M142-H08 (P1′); HV-CDR3 … (antibody, V domains shown)
VL: QDIQMTQSPSSLSAFVGDRVTITCRASQPIDNYLNWYHQKPGKAPKLLIYAASRLQSGVPSRLSGSGFGTDFTLTISSLQPEDFGNYYCQQSYTVPYTFGGGTKVEIR
VH: EVQLLESGGGLVQPGGSLRLSCAASGFTFSAYSMIWVRQAPGKGLEWVSYIRPSGGRTTYADSVKGRFTISRDNSKNTLYLQMNSLRAEDTAVYYCARGGLLLWFRSLKSNYFDYWGQGTLVTVSSASTKGPSVFPLAPSSKS
B11: X69-F09: single point mutation of M142-H08 (P1′); HV-CDR3 GGLLLWFRSLKSNYFDY (antibody, V domains shown)
VL: QDIQMTQSPSSLSAFVGDRVTITCRASQPIDNYLNWYHQKPGKAPKLLIYAASRLQSGVPSRLSGSGFGTDFTLTISSLQPEDFGNYYCQQSYTVPYTFGGGTKVEIR
VH: EVQLLESGGGLVQPGGSLRLSCAASGFTFSAYSMIWVRQAPSKGLEWVSYIRPSGGRTTYADSVKGRFTISRDNSKNTLYLQMNSLRAEDTAVYYCARGGLLLWFRSLKSNYFDYWGQGTLVTVSSASTKGPSVFPLAPSSKS
B12: X69-B02: single point mutation of M142-H08 (P1′); HV-CDR3 GGLLLWFRCLKSNYFDY (antibody, V domains shown)
VL: QDIQMTQSPSSLSAFVGDRVTITCRASQPIDNYLNWYHQKPGKAPKLLIYAASRLQSGVPSRLSGSGFGTDFTLTISSLQPEDFGNYYCQQSYTVPYTFGGGTKVEIR
VH: EVQLLESGGGLVQPGGSLRLSCAASGFTFSAYSMIWVRQAPGKGLEWVSYIRPSGGRTTYADSVKGRFTISRDNSKNTLYLQMNSLRAEDTAVYYCARGGLLLWFRCLKSNYFDYWGQGTLVTVSSASTKGPSVFPLAPSSKS
B13: X69-F05: single point mutation of M142-H08 (P1′); HV-CDR3 GGLLLWFRLLKSNYFDY (antibody, V domains shown)
VL: QDIQMTQSPSSLSAFVGDRVTITCRASQPIDNYLNWYHQKPGKAPKLLIYAASRLQSGVPSRLSGSGFGTDFTLTISSLQPEDFGNYYCQQSYTVPYTFGGGTKVEIR
VH: EVQLLESGGGLVQPGGSLRLSCAASGFTFSAYSMIWVRQAPGKGLEWVSYIRPSGGRTTYADSVKGRFTISRDNSKNTLYLQMNSLRAEDTAVYYCARGGLLLWFRLLKSNYFDYWGQGTLVTVSSASTKGPSVFPLAPSSKS
B14: X69-E01: single point mutation of M142-H08 (P1′); HV-CDR3 GGLLLWFRWLKSNYFDY (antibody, V domains shown)
VL: QDIQMTQSPSSLSAFVGDRVTITCRASQPIDNYLNWYHQKPGKAPKLLIYAASRLQSGVPSRLSGSGFGTDFTLTISSLQPEDFGNYYCQQSYTVPYTFGGGTKVEIR
VH: EVQLLESGGGLVQPGGSLRLSCAASGFTFSAYSMIWVRQAPGKGLEWVSYIRPSGGRTTYADSVKGRFTISRDNSKNTLYLQMNSLRAEDTAVYYCARGGLLLWFRWLKSNYFDYWGQGTLVTVSSASTKGPSVFPLAPSSKS
B15: X69-E05: single point mutation of M142-H08 (P1′); HV-CDR3 GGLLLWFRRLKSNYFDY (antibody, V domains shown)
VL: QDIQMTQSPSSLSAFVGDRVTITCRASQPIDNYLNWYHQKPGKAPKLLIYAASRLQSGVPSRLSGSGFGTDFTLTISSLQPEDFGNYYCQQSYTVPYTFGGGTKVEIR
VH: EVQLLESGGGLVQPGGSLRLSCAASGFTFSAYSMIWVRQAPGKGLEWVSYIRPSGGRTTYADSVKGRFTISRDNSKNTLYLQMNSLRAEDTAVYYCARGGLLLWFRRLKSNYFDYWGQGTLVTVSSASTKGPSVFPLAPSSKS

These molecules were tested against T1, pKal (Homo sapiens, UniProt P03952) (assay: Fab fragments (small scale) tested for inhibition against human pKal in an in vitro protease cleavage assay). Settings: Table 9.
T1 construct: two disulfide linked polypeptides; a heavy chain of approximately 52 kDa and a catalytic domain of approximately 34 kDa; host or cells: human plasma
T1 sequence (P03952 391-638 limits assumed): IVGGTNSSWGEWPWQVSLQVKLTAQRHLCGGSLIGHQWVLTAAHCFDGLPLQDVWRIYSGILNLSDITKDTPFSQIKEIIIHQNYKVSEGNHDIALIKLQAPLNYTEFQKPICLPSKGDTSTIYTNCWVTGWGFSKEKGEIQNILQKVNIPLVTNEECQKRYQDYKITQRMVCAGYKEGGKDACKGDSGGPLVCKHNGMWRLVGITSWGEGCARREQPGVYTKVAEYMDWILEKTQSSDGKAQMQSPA
T1 sequence (P03952 20-390 partner limits assumed): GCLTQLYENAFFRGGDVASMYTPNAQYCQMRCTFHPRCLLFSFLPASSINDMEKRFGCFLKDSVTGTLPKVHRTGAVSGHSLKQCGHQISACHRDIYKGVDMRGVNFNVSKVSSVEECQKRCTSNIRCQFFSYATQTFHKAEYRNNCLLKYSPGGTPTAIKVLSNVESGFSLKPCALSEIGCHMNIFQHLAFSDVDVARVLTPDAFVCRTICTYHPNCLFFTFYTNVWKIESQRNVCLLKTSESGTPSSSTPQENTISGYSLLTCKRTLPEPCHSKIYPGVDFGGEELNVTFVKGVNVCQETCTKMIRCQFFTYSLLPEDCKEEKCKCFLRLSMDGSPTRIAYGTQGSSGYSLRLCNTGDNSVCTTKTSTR
Format: biochemical
Protocol: By DNA sequencing, we recovered 61 of the possible 80 antibodies (Table 9). These antibodies were produced as Fab fragments in small scale (˜20 μg) and tested for inhibition against human pKal in an in vitro protease cleavage assay using Pro-Phe-Arg-aminomethylcoumarin as the synthetic peptide substrate. […] Five antibodies were then expressed in 293T cells and purified by protein A sepharose chromatography. The antibodies were analyzed by SDS-PAGE to determine which of the inhibitory mutants are not cleaved by the host cell protease(s) (data not shown).

Inhibit as a Fab?, No:
B1
B3
B4
B5
B8
B12
B15

Inhibit as a Fab?, Yes:
B2
B6
B7
B9
B10
B11
B13
B14
